The nature of data set [1]: amyloid nucleation score (Sup35N fusion, yeast selection) (log enrichment); library NNK2; higher = more nucleation; inactive = no reads after selection. The essentials:
(§1)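 Three technical output replicates were used for random libraries. Psi-negative yeast expressing peptides of 20 random codons fused to Sup35N were induced with 100 μM copper sulfate for 24 hours and grown 7 days at 30°C on medium lacking adenine and uracil, and input and output plasmid inserts were Illumina-sequenced, excluding sequences with under 100 input reads. The nucleation score is the DiMSum log enrichment of output over input reads, centred on the mode score of non-aggregating sequences.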

Data set [2] in a line: amyloid nucleation score (Sup35N fusion, yeast selection) (log enrichment); library NNK1; higher = more nucleation; inactive = no reads after selection. The essentials:
as §1

± gives the uncertainty stated by the source.

As to AKLDWHIRTAEWGLPKLLLT, the amyloid nucleation score in data set [1] is -0.467 ± 0.54; in data set [2] it was “inactive”.
Substance GYLSGSMSDETGTPDMCTRG registered an amyloid nucleation score in data set [2] of 0.353 ± 0.51.
Same read-out and setting: under YMYEMGICFELDDTHEG stands 0.608 ± 0.55; under MCGRSGTFSAILRDREGLNI, 0.219 ± 0.65; under KDMDSFSTTCLLLRLRGRTG, 0.053 ± 0.35.
Still for that read-out and setting: under HRNSCVPPGVAGIVTVCL stands 0.363 ± 0.6.
Still for that read-out and setting: the same measure for EGQCSNIVSKLAPSKIPYLR: -0.853 ± 0.66; for SEHILFLCCMMVGSVVSSAC: “inactive”.
Substance YVRFYLFNFVGLRQKFMI yielded an amyloid nucleation score in data set [2] of 2.74 ± 0.17.
On the same count and under the same terms, under SVKGRGRGILWMLAVSECVG stands -0.762 ± 0.62.
The same measure, in the same setting: the same measure for SYAGYGTNK: -0.242 ± 0.62; for YYLDGTGLWVNCVRMARGCG: 1.16 ± 0.78; for EIARHSFF: “inactive”.
The same measure, in the same setting: under TLCCLT stands “inactive”; under ISTPIDDPKCLGSLVYFHQM, -0.693 ± 0.53.
In data set [2], YSNSGMGNV yielded an amyloid nucleation score of 0.568 ± 0.21.
Same read-out and setting: under VILFNSNTEYQKLEQLLELW stands 0.153 ± 0.23.
Same read-out and setting: under YHLERKGPAFVNFLTMGSCR stands -0.908 ± 0.85.
For the substance FLKFDTSMVVLGWTFLMESF, the amyloid nucleation score in data set [2] is -0.023 ± 0.41.
The same measure, in the same setting: the same measure for SQVEVIVYNVVSFTDGVRLA: 3.89 ± 0.097; for KFSSKFTSG: 0.436 ± 0.37.
The same measure, in the same setting: under DGRRFFYQRGDICLSMLHNH stands -1.58 ± 1.7; under LHGPWVVYFELSSIFTLTYQ, -0.478 ± 0.29.
Still for that read-out and setting: the same measure for RDPYMCSLVRAGSGSKGTI: 0.447 ± 0.56.
MTSYGSFRKATWNDWISNMS: the amyloid nucleation score in data set [2] was -0.393 ± 0.41.
Still for that read-out and setting: the same measure for GLRALEMSLSES: “inactive”; for VRSGDCYRSNSKSVFVMAIR: 0.617 ± 0.49; for HVLMIRWLWWGISRACKNSR: -0.193 ± 1.6.
As to HNCCDEVCGSNSGLFFRFMN, the amyloid nucleation score in data set [2] was 0.979 ± 0.65.
The same measure, in the same setting: the same measure for PRGLVWNVPRLSKTVASILF: -0.942 ± 0.73; for NYNTIWMMKWFNGRWFLSAV: -0.293 ± 0.94.
Still for that read-out and setting: under VDRGCKYKQLMREVVSEHVI stands 0.753 ± 0.63; under SFTGVDHSQLNDFSATNNAS, 0.653 ± 0.55.
For KHPEM, in data set [2], the amyloid nucleation score turned out to be 1.43 ± 0.38.
The same measure, in the same setting: the same measure for WHRRLGNMFKIASRTELRMG: -0.672 ± 1.1; for AVLNFIQVVVVVEVVGCYQH: 2.68 ± 0.28; for KITSEPTKFYMGVCPSRSEL: -0.112 ± 0.44.
The same measure, in the same setting: under CPVFQHDDKDWLGVFKWLRN stands -1.32 ± 2.4.
The same measure, in the same setting: the same measure for LHLRTVAGSWSNIFYLAAPM: 0.433 ± 0.31; for MLIKSIFIFSTLLYISMYD: 0.786 ± 0.29.
DRTRLVSHHTRIVRRWAHVY returned an amyloid nucleation score in data set [2] of 0.064 ± 0.65.
For LRHRKSRNRVSCHCLGHGCW, the amyloid nucleation score in data set [2] came to 1.54 ± 0.84.
In the case of NPFWWVRPL, the amyloid nucleation score in data set [2] is 0.284 ± 0.81.
Same read-out and setting: under NIFIFTVSHKPNY stands 7.926 ± 0.057.
Still for that read-out and setting: under RERSIWFSFDGCRRRRRYGG stands 1.41 ± 0.78; under FSALPTLASGLGFGR, 0.604 ± 0.73.
The same measure, in the same setting: under VIRFSGVLCMIDL stands 5.09 ± 0.071.
With PDTYRLWRWSCIFEKCCDEG, the amyloid nucleation score in data set [2] is -0.194 ± 0.41.
On the same count and under the same terms, under TWVVTHPPTM stands 0.359 ± 0.55; under YQDAGVLGRLPHLFTNGSFT, 0.021 ± 0.93; under TSDFVVPM, 0.691 ± 0.41.
In data set [2], AIRFDLVTFAAIEGIIYKGR registered an amyloid nucleation score of 0.136 ± 1.
On the same count and under the same terms, under HFLTDMNFKRARDSDLSSVW stands 0.489 ± 0.29; under PVYMGIAALYGPGCLTLLTV, 2.07 ± 0.3.
The same measure, in the same setting: the same measure for PAVFCW: 0.387 ± 0.48.
Still for that read-out and setting: under SEVSISGVVYFDHREVVEV stands -0.165 ± 1.4; under SIMSFH, “inactive”.
On to LNNAGTFFLPEVFRLRWTNV, for which the amyloid nucleation score in data set [2] came out at 0.018 ± 0.93.
The same measure, in the same setting: the same measure for GMMHYRFLIFFWYTSRTAYW: -0.355 ± 0.84.
Still for that read-out and setting: the same measure for FMIHMLTGSLLRVNDCNLGE: 0.987 ± 0.64; for ISFPSSDYGGGSAPVEGWLG: 0.47 ± 1.2; for LFRGT: -0.457 ± 0.27.
Same read-out and setting: under DCNLSSYLVYWAFHYDKLMS stands 0.083 ± 0.58.
For the substance DIVPSTPELFI, the amyloid nucleation score in data set [2] is -0.505 ± 0.59.
In turn, FNWLTVSAFHQHRTLTMNMY registered an amyloid nucleation score in data set [2] of 0.216 ± 0.3.
The same measure, in the same setting: the same measure for SPGVDGWNPWVDTVLRKVSK: -0.776 ± 0.61.
For VYFYVQPNGFMEIGASMIAA, the amyloid nucleation score in data set [2] was -0.431 ± 1.4.
